Assay: yeast display, Sf9 membrane polyspecificity reagent, FACS + sequencing; frameworks hold sequencing errors
Summary of the method: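 A synthetic nanobody library was expressed on Saccharomyces cerevisiae BJ5465 by galactose induction for 36–48 hours. The library was stained for 1 hour at 4 °C with 10% biotinylated, detergent-solubilized Sf9 membrane reagent and enriched with streptavidin microbeads before FACS. Low and high (top ~1%) gates were set on anti-HA fluorescence for expression and streptavidin fluorescence for reagent binding, and each polyreactivity label reflects the gate of origin.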

Sequence | polyreactivity (PSR sort gate)
QVQLVESGGGLVQAGGSLRLSCAASGFTFAGYAMGWYRQAPGKERELVAVITSSDSTYYADSVKGLFTISRDNAKNTDYLQMNSLKPEDTAVYYSAVRSYVNWWSIVKYDYWGQGTQVTVSS | low polyreactivity
QVQLVESGGGLVQAGGSLRLSCAASGFTFAHYAMGWYRPAPGKERELVAAISGSGSSTYYADSVKGRFTISRDYAKNSVYLKMNSLKPEDTAVYYCNVRWYFLYYYWGQGTQVTVSS | low polyreactivity
QVQLVESGGGLVQAGGSLRLSCAASGFTFAKNAMGWYRQAPGKERELVADITYSGGSTYADSVKGRFTISRDNAKNTVYLQMNSLKPEETAVYYCAADARRRSGYDYWGQGTQVSVSS | low polyreactivity
QVQLVESGGGLVQAGGSLRLSCAASGFTFAKYAMGWYRQAPGKERELVAAIRSRGDTTYYADSVKGRFTISRDNAKNTVYFQLNSLKPEDTAVYYCSARSYFLVDGSRYDYCGQGTQVTVSS | high polyreactivity
QVQLVESGGGLVQAGGSLRLSCAASGFTFAPYAMGWYRQAPGKERELVATIRSSGGRTYYADSVKGRFTISRDNAKNTVYLQMNSLKPEDTAVYYCAATGVYTKNPRGMDYWGQGTKVTVSS | high polyreactivity
QVQLVESGGGLVQAGGSLRLSCAASGFTFARNGMGWYRQAPGKEREFVAAITRSGGRTYYADSVKGRFTISRDNAKNTVYLQMNSLKPEDTAVYYCAAGYRGIGMNYWGQGTQVTVSS | high polyreactivity
QVQLVESGGGLVQAGGSLRLSCAASGFTFARNVMGWYRQAPGKERELVAAITTSGGSTYYADSVKGRFTISRDNAKNTVYLQMKSLKPEDTAVYYCARRVYGYYIPYNYWGQGTQVTVSS | high polyreactivity
QVQLVESGGGLVQAGGSLRLSCAASGFTFARYAMGWYRQAPGKERELVAAIIWSGGRTYYADSVKGRFTISRDTAKNTVYLQMNSLKPEDTAVYYCNAWGLFYYSSGYDYWGQGTQVTVSS | high polyreactivity
QVQLVESGGGLVQAGGSLRLSCAASGFTFAVYAMGWYRQAPGKERELVAAITTSGTRTYYADSVKGRFTISRDNAKNTVYLQMNSLKPEDTAVYYCAAVGFRQWPEFDYWGQGTQVTVSS | low polyreactivity
QVQLVESGGGLVQAGGSLRLSCAASGFTFAVYDMGWYRQAPGKERELVASITGDSTNYADSVKGRFTISRDNAKNTVYLQMNSLKPEDTAVYYCAAEYVPYYEYESWGQGTQVTVSS | low polyreactivity
QVQLVESGGGLVQAGGSLRLSCAASGFTFAWYTMGWYRQAPGKERELVAAITDSGDSTYYADSVKGRFTISRDNAKNTVYLQMNSLKPEDTAVYYCATRTWYWDIWITEYDYWGQGPQVTVSS | low polyreactivity
QVQLVESGGGLVQAGGSLRLSCAASGFTFAWYTMGWYRQEPGKESELVAAISWSGGSTYYADSVKGRFTISPDNANKTVYLQMNILKPEDTAVYYCAVTTGLTRYEYWGQGTQVTVSS | high polyreactivity
QVQLVESGGGLVQAGGSLRLSCAASGFTFAYNAMGWYRPAPGKERELVAAISGRGVSTYYADSVKGRFTISRDNAKNTVYLQMNSLKPEDTAVYYCAKRYRYWTTERYDYWGQGTQVTVSS | high polyreactivity
QVQLVESGGGLVQAGGSLRLSCAASGFTFAYNAMGWYRQAPGKERELVAAISSGGTRTYYADSVKGRFTISRDNAKYTVYLQLNSLNPEDTAVYYCASERVGWSGYRGDYLGQGTQVTVSS | high polyreactivity
QVQLVESGGGLVQAGGSLRLSCAASGFTFAYNAMGWYRQAPGKERELVAAISWSGGTTYYADSVKGRFTISRDNAKNTVYLQMNSLKPEDTAVYYCAKRGIGYATSWRGSDYWGQGTQVTVSS | high polyreactivity
QVQLVESGGGLVQAGGSLRLSCAASGFTFAYYAMGWDRQAPGKERELVAAINWSGTRTSYADSVKGRFTISRDNAKNTVYLQMNSLKPEDTAVYYCAADSSLRYDYWGQGTQVTVSS | high polyreactivity
QVQLVESGGGLVQAGGSLRLSCAASGFTFAYYAMGWYRQAPGKEWELVAAISRGGTSTYYADSVKGRFTISRDKAKNTVYLQMNTLKPEDTAVNYCNAGKVGYSLYDYCGQGTQVTVSS | high polyreactivity
QVQLVESGGGLVQAGGSLRLSCAASGFTFCRYAMGWYRQAPGKEREFVAGISSSGGSTYYADSVKGRFTISRDNAKNTVYLQMNSLKPEVTAVYYCNKARYFTGQRYDYWGQGTQVTVSS | high polyreactivity
QVQLVESGGGLVQAGGSLRLSCAASGFTFDANAMGWYRQAPGKERELVAAITRVGSTFYADSVKGRFTISRDNAKNTVYLQMNSLKPEDTAVYYCNAARDHVSGYDYWGQGTQVTVSS | low polyreactivity
QVQLVESGGGLVQAGGSLRLSCAASGFTFDAYTMGWYRQAPGKERELVAAINWSGDTTYYADSVKGRFTISRDNAKNTVYLQMNSLKPEDTAVYYCAAVWWIYGVWFDYWGQGTQVTVSS | high polyreactivity
QVQLVESGGGLVQAGGSLRLSCAASGFTFDENAMGWYRQAPGINYSGASTYYADSVKGRFTISRDNAKNTVYLQMNSVKPEDTAVYYCAAEVVAQMNYCGQGTQVTVSS | low polyreactivity

Sequence | polyreactivity (PSR sort gate)
QVQLVESGGGLVQAGGSLRLSCAASGFTFDENAMGWYRQAPGINYSGASTYYADSVKGRFTISRDNAQNSVYLQMNSLKPEDTAVYYCAAEVVAQMNYWGQGTQVTVSS | low polyreactivity
QVQLVESGGGLVQAGGSLRLSCAASGFTFDENAMGWYRQAPGINYSGASTYYAVSVKGRFTIARDNAKNTVYLQMNSLKPEDTAVYYCAAEVLAQMNYWGQGTQVTVSS | low polyreactivity
QVQLVESGGGLVQAGGSLRLSCAASGFTFDFYAMGWYRQAPGKDRELVAAISRSGGRTYYADSVKGRFTISRDNAKNTVYLQMNSLKPEDTAVYYCAAVDIIPVRMEYWGQGTQVTVSS | high polyreactivity
QVQLVESGGGLVQAGGSLRLSCAASGFTFDFYAMGWYRQAPGKERELVAAISKNDGTTYYADSVKGRFTISRDNAKNTVYLQMNSLKPEDTAVYYCAADVELWVFRGQQYDYWGQGTQVTVSS | low polyreactivity
QVQLVESGGGLVQAGGSLRLSCAASGFTFDGYGMGWYRQAPGKERELVAVITSGGSTKYADSVKGRFTISRDNAKNTVYLQMNSLKPEDTAVYYCAADNRIRGVAFDYWGQGTKVTVSS | low polyreactivity
QVQLVESGGGLVQAGGSLRLSCAASGFTFDKNAMGWYRPAPGKERELVAAINIGSTYYADSVKGRFTISRDNAKNTVYLQMNRLKPEDTAVYYCAKEVPSGYWVNYYYWGQGTQVTVSS | low polyreactivity
QVQLVESGGGLVQAGGSLRLSCAASGFTFDKYAMGRYRQAPGKERDLDAGITRSGSTYYADSVKGRFTISRDNAKNTVYLQMNSLKPEDTAVYYCKARPRGSYNRPNYPRYYYCGQGTQVTVSS | high polyreactivity
QVQLVESGGGLVQAGGSLRLSCAASGFTFDNYAMGWYRQAPGKERELVAAINWSGGRTYYADSVKGRFTISRDNAKNTVYLQMNSLKPEDTAVYYCAVPGYVRMDYWGQGTQVTVSS | high polyreactivity
QVQLVESGGGLVQAGGSLRLSCAASGFTFDNYAMGWYRQAPGKERELVAAISSGGGRTYYADSVKGRFTISRDNAKNTVYLLMNSLKPEDTAVYYCAAVTLYKRYDYWGQGTQVTVSS | high polyreactivity
QVQLVESGGGLVQAGGSLRLSCAASGFTFDNYVMGWYRQAPGKERELVAAISKSGTSTYYADSVKGRFTISRDNAKNTVYLQMNSLKPEDTAVYYCAAALPGYGDYYYWGQGTQVTVSS | high polyreactivity
QVQLVESGGGLVQAGGSLRLSCAASGFTFDSNAMGRYRQAPGKERELVAANSTGGSTYYADSVKGRFTISRDNAKNTVYLQMNSLKPEDTAVYYCARDPPYPDTWYGYWGQGTQVTVSS | low polyreactivity
QVQLVESGGGLVQAGGSLRLSCAASGFTFDSYAMGWYRQAPGKERELVAAISYRGGTTYYADSVKGRFTISRDNAKNTVYLQMNSLKPEDTAVYYCATPYKYVTGEDYWGQGTQVTVSS | high polyreactivity
QVQLVESGGGLVQAGGSLRLSCAASGFTFDTNAMGWYRLAPGKERELVAAISRIGGRPYADSVKGRFTISRDNAKNTVYLQMNSLKPEDTAVYYGAADTTGYPYGYDSWGQGTQVTVSS | low polyreactivity
QVQLVESGGGLVQAGGSLRLSCAASGFTFDWYAMGWYTQAPGKERELVAAITTSGGTTYYADSVKGRFTISRDNSKNNVYLKMISLKPEDPAVYFCAADYYYWYPVEKYDYCGQGTQVTVSS | low polyreactivity
QVQLVESGGGLVQAGGSLRLSCAASGFTFDYNAMGWSRQAPGKERELVAAISYSDDSTYYADSVKGRFTISRDNAKNTVYLQMNSLKPEETAVYYCAAYFGAYGYDYWGQGSQVTVSS | low polyreactivity
QVQLVESGGGLVQAGGSLRLSCAASGFTFDYNAMGWYRQAPGKERELVAAISASGGSTYYADSVKGRFTISRDTAKNTVYLQMNSLKPEDTAVYYCAAKRFSPQHRYDHWGQGTQVTVSS | high polyreactivity
QVQLVESGGGLVQAGGSLRLSCAASGFTFDYNAMGWYRQAPGKERELVAAISASGGSTYYADSVKGRYTISRDTAKNTVYLQMNSLKPEYTAVYYCAAKRFSPQHRYDHWGQGTQVTVSS | high polyreactivity
QVQLVESGGGLVQAGGSLRLSCAASGFTFDYNAMGWYRQAPGKERELVAAISNTGDSTYYADSVKGRFTISRDNAKNTVYLQMNSLKPEDTAVYYCAADSLFYDYWEYDYWGQGTQVTVSS | low polyreactivity
QVQLVESGGGLVQAGGSLRLSCAASGFTFDYYAMGWYRQAPGKERELVAAINWSGAITYYADSVKGRFTISRDNAKNTVYLQMNSLKPEDTAVYYCAARWGKFYGRFYWGMDYWGQGTQVTVSS | high polyreactivity
QVQLVESGGGLVQAGGSLRLSCAASGFTFDYYAMGWYRQAPGKERELVAAITSGSITYYADSVKGRFTISRDNAKNTVYLQMNSLKPEDTAVYSCAAVGLVRYGYWGQGTQVTVSS | high polyreactivity
